Broadly, the stoichiometry N is the number of molecules, sites or subunits per partner or assembly. The IC50 is the concentration at which inhibition is half-maximal.

The values below come from publication PMC11319651, “Distinct conformational states enable transglutaminase 2 to promote cancer cell survival versus cell death” (Communications Biology, 2024).

Numbering of substitutions follows the chain as printed. In names and notes the source's numbering stands.

The target of data set [1] is Transglutaminase 2 (TG2), wildtype, recombinant human (human) (UniProt P21980). The experiment in a line: SAXS; static SAXS, 25 µM (2 mg/mL) TG2 with 2 mM Ca2+ for 5 min, TG2 Storage Buffer; DAMMIF envelopes (P1, P2), CRYSOL fit to the open state dimer; deconvolution into monomer and dimer.
For data set [2] the target is unchanged. The experiment in a line: SAXS; time-resolved SAXS, Kenics chaotic advection mixer, TG2 1 mg/mL final, 2 mM Ca2+, 0-631 ms; deconvolution into closed state monomer and open state dimer.
For the next data set, the target named is T1, Transglutaminase 2 (TG2) (Homo sapiens, UniProt P21980).
T1 construct: gene TGM2; N-terminal six-histidine tagged human TG2
T1 sequence (P21980 1-687): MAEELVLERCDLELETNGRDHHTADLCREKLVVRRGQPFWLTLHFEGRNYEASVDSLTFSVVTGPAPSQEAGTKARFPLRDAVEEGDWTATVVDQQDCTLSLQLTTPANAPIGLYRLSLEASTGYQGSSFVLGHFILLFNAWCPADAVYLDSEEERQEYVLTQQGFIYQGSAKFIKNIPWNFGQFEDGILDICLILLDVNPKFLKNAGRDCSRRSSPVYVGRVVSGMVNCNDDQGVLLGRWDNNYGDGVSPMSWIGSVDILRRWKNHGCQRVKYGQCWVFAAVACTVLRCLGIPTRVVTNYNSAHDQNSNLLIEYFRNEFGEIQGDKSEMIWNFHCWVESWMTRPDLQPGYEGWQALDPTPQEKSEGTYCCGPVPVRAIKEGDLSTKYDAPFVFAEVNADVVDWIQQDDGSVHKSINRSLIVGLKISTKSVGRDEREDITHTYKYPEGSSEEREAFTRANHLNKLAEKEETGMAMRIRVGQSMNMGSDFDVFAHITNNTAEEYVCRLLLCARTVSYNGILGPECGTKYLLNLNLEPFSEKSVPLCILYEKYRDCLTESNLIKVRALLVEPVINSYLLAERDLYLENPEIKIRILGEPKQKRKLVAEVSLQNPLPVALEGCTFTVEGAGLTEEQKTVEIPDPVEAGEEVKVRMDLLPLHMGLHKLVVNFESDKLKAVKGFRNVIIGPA
The experiment in a line: biochemical. Also on record: inhibition of TG2 protein crosslinking activity, gel-based read-out. An excerpt:
(the LM-series, Fig. S6).

Data set [3] deals with the molecule itself. The experiment in a line: SAXS; static SAXS, TG2 R580K with GTP at concentrations greater than 1 mM (up to 5 mM); CRYSOL fit to the open state dimer (from crystal packing of PDB 2Q3Z).

Take “Transglutaminase 2 (TG2), wildtype, recombinant human (from UniProt P21980 1-687) (enzyme)”: in data set [1], the percent dimer after five minutes with Ca2+ amounted to 100% and the stoichiometry N was determined as 2. In addition, in data set [2], the percent dimer at t = 0 ms came out at 61%.

Turning to `O=C1NC(=O)N(c2cccc(Cl)c2)C(=O)/C1=C/Nc1ccc(Cl)c(CN2C(=O)c3ccccc3C2=O)c1` [LM11], on Transglutaminase 2 (TG2), the IC50 was 10 µM.

B1: TG2 R580K mutant (enzyme, human)
chain: T1 sequence (P21980 1-687) with R580K
notes: human transglutaminase 2 (TGM2), UniProt P21980, with the substitution R580K; The methods describe expression and purification only for TG2 in general; also called TG R580K
As to B1, the “stoichiometry N” value in data set [3] was found to be 2.
